Laboratory results taken from patent US12427210B2, “Compounds comprising a fibroblast activation protein ligand and use thereof” (priority 2019, dated 2025).

B1: Hex-[Cys(tMeBn(DOTA-AET))-Pro-Pro-Thr-Gln-Phe-Cys]-OH (3BP-3554) (peptide)
peptide: CPPTQFC
modifications: here or on the partner: N-terminal hexanoyl (Hex); Cys1 and Cys7 cyclised through tMeBn carrying DOTA-AET; free C-terminal acid (-OH)
B2: Hex-[Cys(tMeBn(DOTA-PP))-Pro-Pro-Thr-Gln-Phe-Cys]-Asp-NH2 (3BP-3407) (peptide)
peptide: CPPTQFCD
modifications: here or on the partner: N-terminal hexanoyl (Hex); Cys1 and Cys7 cyclised through tMeBn carrying DOTA-PP; C-terminal amide

Columns and labels:
Assay in all cases: radioligand displacement, compound at 10 µM
Details in all cases: remark: other sources report otherwise
[1] = target: mu (MOP) (h) (human), P35372
mu (MOP) (h) (human), P35372, sequence (P35372 whole entry): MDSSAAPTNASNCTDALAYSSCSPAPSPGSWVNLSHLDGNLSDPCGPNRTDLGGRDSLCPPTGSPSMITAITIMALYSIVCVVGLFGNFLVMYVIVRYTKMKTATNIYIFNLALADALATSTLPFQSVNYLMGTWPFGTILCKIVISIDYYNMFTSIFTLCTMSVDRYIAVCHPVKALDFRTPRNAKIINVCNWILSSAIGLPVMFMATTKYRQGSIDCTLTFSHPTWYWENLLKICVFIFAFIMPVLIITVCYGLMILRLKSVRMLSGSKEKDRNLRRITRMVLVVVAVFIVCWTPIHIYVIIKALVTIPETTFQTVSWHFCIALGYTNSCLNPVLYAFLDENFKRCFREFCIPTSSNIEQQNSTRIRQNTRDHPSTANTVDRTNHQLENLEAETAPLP

[2] = target: T1, GR (h) (human), P04150
T1 chain: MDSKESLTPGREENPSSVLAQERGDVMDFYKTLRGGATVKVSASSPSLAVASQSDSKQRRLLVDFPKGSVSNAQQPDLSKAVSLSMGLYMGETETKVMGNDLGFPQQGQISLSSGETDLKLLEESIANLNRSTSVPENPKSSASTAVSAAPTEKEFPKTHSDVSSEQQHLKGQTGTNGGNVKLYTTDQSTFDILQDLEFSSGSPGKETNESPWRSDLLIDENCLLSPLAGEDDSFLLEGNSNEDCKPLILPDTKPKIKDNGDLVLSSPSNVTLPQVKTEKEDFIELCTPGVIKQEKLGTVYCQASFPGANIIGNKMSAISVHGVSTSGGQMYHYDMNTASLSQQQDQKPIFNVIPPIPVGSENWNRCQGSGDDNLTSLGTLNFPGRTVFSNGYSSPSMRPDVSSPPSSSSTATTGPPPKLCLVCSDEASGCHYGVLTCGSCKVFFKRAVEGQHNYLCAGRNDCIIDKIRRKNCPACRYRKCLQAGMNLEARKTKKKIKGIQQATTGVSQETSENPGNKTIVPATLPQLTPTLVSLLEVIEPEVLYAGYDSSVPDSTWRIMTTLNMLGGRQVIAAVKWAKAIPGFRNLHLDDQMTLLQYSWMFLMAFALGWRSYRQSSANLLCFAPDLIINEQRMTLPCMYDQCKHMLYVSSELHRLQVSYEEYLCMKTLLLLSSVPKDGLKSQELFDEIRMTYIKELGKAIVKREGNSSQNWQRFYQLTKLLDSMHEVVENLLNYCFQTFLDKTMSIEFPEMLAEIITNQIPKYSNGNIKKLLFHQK

[3] = target: M3 (h) (human), P20309
[4] = target: beta 2 (h) (human), P07550
[5] = target: T2, delta (DOP) (h) (human), P41143
T2 chain: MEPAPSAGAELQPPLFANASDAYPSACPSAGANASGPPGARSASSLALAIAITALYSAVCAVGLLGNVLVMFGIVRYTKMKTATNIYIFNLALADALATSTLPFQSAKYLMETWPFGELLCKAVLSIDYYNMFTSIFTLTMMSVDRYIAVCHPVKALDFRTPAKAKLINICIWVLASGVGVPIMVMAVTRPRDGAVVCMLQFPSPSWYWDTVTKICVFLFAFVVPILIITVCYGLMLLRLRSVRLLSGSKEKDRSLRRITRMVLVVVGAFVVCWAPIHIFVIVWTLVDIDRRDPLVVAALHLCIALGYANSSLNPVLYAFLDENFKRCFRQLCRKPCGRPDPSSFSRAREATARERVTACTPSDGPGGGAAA

[6] = target: T3, D1 (h) (human), P21728
T3 chain: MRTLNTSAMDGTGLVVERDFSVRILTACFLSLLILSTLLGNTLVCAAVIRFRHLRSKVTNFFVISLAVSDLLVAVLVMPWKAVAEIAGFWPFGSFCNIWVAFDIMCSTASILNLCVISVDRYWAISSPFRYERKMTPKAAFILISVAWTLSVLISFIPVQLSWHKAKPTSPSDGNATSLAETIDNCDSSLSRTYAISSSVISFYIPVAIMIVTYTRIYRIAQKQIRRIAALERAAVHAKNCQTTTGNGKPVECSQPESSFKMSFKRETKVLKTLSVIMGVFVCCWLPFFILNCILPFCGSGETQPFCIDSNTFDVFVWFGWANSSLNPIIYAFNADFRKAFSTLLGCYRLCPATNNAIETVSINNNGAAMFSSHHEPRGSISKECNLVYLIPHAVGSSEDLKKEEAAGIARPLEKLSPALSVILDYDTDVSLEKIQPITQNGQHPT

[7] = target: T4, CCK1 (CCKA) (h) (human), P32238
T4 chain: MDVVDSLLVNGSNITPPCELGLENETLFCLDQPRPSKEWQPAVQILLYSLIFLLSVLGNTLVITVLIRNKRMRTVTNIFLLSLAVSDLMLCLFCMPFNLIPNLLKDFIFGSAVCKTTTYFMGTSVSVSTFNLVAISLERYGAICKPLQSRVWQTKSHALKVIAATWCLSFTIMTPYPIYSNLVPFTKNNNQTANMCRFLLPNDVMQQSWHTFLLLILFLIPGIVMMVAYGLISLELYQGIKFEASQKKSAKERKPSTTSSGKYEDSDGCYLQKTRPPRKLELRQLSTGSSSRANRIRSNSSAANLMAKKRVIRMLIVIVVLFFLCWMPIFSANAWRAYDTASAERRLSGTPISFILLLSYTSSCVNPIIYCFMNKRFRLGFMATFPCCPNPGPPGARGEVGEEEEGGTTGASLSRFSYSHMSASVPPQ

[8] = target: T5, alpha 1A (h) (human), P35348
T5 chain: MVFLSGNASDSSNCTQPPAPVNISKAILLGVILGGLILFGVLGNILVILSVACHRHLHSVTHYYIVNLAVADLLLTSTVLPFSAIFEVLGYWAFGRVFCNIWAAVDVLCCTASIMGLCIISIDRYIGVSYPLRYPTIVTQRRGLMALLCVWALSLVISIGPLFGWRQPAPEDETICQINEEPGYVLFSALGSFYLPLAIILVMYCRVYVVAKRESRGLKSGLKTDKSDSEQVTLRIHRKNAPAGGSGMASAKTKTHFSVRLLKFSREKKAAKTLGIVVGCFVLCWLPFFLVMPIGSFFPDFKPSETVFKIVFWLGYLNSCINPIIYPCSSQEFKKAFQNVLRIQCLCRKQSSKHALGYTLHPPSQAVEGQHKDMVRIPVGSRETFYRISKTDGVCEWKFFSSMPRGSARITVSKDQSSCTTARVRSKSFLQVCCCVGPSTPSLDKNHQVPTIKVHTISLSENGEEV

| Binder | % Inhibition of Specific Binding [1] | % Inhibition of Specific Binding [2] | % Inhibition of Specific Binding [3] | % Inhibition of Specific Binding [4] | % Inhibition of Specific Binding [5] | % Inhibition of Specific Binding [6] | % Inhibition of Specific Binding [7] | % Inhibition of Specific Binding [8] |
| --- | --- | --- | --- | --- | --- | --- | --- | --- |
| B1 | -10% | 0% | 1% | 8% | 1% | 7% | 16% | -12% |
| B2 | 2% | -2% | 10% | 4% | 0% | 0% | 24% | 2% |
